A short description of the data set: soluble on expression in E. coli; label from the status in PepcDB or PDB records.
For “MMTQQELEKYLWGAATTLRGTIDAGDYKQYIFPLMFFKRICDVYDEEFENALAESDGDLEYAAFAENHHFQVPKGAHWNDVRETTTNIGLALQNAMRAIEKANPDTLEGIFGDASWTNKERLSDAMLTNLIEHYSEQTLNLKNVPDDKLGNAYEYLIKEFADDSGHTAAEFYTNRTVVKLMTMIMAPQPGESVYDPTCGSGGLLLNCALHLKDEGKEYRTLKLYGQEINLLTSAIARMNMFMHGIEEFDIVRGNTLSNPGLLENDELKKFNVILANPPYSIKSWDRKAFESDPYGRNVWGTPPQGCADYAFQQHIQKSLDLGNGRSISLWPHGILFRDAETAMRRKMIEQDQVECVIGLGPNLFYNSPMEACLLITKTNKIESKKDKILFINAVKEVRQDKNIGYLDQVHIDKIFNAYNKFENEDSFAVLVDKQEVLDKKANMAINLYIRPDSLVSSEEACFATAYQEWQQSSGDLKQSMEKLFKELV”, the “soluble on expression in E. coli” value is reported as “not soluble”.

For the sequence “MMTYDRNRNAITTGSRVMISGTGHTGIIKAIESEGLDAGQIRRGKTVIVEGCEGKFAPVELIRLGMN”, the “soluble on expression in E. coli” value is listed as “not soluble”.

As for “MMVTFGEPGVYSSYSNPLPSTDTWEDCLEYCLGLSTCVAVYNNNCQMFEIGQISTATSTSETKIAFKFLADNATCPIQEPTSLQGHYFTNTTYQPYTVSYSAPTWTFANSTQLECPTNYALFVRDLGPWCMKVIQHYACCNKTIAATMCNSYGAQLSGLDSTAEYDFMLAGSWPIFKNVTTNKIGSTQYYATGVWVDGARTLACMGNTTYPCNTTQAFSFTDPTLSSPPGGYLWLPGRPDGGDAPADGIVLNLYTTELYGMEDTPSSEPVSGVYCWMGYLCGAVPT”, the “soluble on expression in E. coli” value was “not soluble”.

Turning to “MNALTPLSARLERSDGHALVTLARSRGAVRLRDLAQRGSAKAFLPRVEGDVPEVVFLNTSGGLTGGDRLSYRLEVGEGCRATATTQTAERAYAAGAGAARVEVLHEVGRDGWLDWLPQETILFEGAALERETQISLAPGAGCLMVESVVLGRAAMGETLSRLAFRDRRSILRGGKPVVVEPLALDDRALAAAGGAAMLGGARALATLAMVGPGAEDALGPARAALGEAGVEAAASAFDGKLVLRLLAADGWPLRRQVARLLTVLRGRALPRVWQVLEHHHHHH”, the “soluble on expression in E. coli” value is given as “not soluble”.

For “MNASSEFTLQFESHAVRVQVDEAGTPWFNANDICTAVELLNPCAALAQHVGARNVSKRKIIDTIGRTQRANYLNEPGVLTLLIGSTKEAAKRLRRWLISEALPAAAVQKAGQHSVPQHHAPSISTPFQPTEDHTMNAITPFQFESHAVRTVVDDHGEVWFVGKDVADVLGYTNHNKALGDHCKGVPKRYPLQTPGGIQEIRIISEPDMLRLIVSSKLPAAERFERWVTSEVLPTIHKTGNRPALDHSTHSANAITPFQFESKDVRIQLDEASAPWFNANDVCSILEFGNPRQAIESHVDVEDVQKLDATDNLGRTRQTNHINESGLYALIMGSTKPAAKRFKRWVTSEVLPTLRKTGTYSTPGALPTLPGPTQDRIAALLLIGQYISTVPGVKPGIAAAATLACIKSNTNLTTEEIRRALPALRDPLCMLNATQLGKQLHCSAKAVNQLLASRGLQFRNERDDWELTEAGRVWGEAIPYSRNGHSSYQILWNPTVVDSLKVAA”, the “soluble on expression in E. coli” value was “soluble”.

Turning to “MNDEQQNSNQSENTKKPFFQSLFGRFFQGELKNREELVEVIRDSEQNDLIDQNTREMIEGVMEIAELRVRDIMIPRSQIIFIEDQQDLNTCLNTIIESAHSRFPVIADADDRDNIVGILHAKDLLKFLREDAEVFDLSSLLRPVVIVPESKRVDRMLKDFRSERFHMAIVVDEFGAVSGLVTIEDILEQIVGDIEDEFDEEEIADIRQLSRHTYAVRALTDIDDFNAQFNTDFDDEEVDTIGGLIMQTFGYLPKRGEEIILKNLQFKVTSADSRRLIQLRVTVPDEHLAEMNNVDEKSELEHHHHHH”, the “soluble on expression in E. coli” value was “not soluble”.

Turning to “MNDGDETLTAGAQGRQFGPLGTALVIIPTYNEAENIKSIVGRVRASVPEAHVLVADDNSPDGTGKLADELAVEDDQVHVLHRKGKEGLGAAYLAGFRWGLDNGYGVLVEMDADGSHRPEELPRLLTALKGADLVLGSRWVPGGRVVNWPKSREFISRGGSLYSRLALDLPQRDITGGYRAFRRETLEGLGLDEVASQGYCFQVDLARRTVKAGYHVVEVPITFVEREFGDSKMSRDILVEALWRVTTWGVGERVGRITGRGPKSSLEHHHHHH”, the “soluble on expression in E. coli” value was “not soluble”.

“MNDGDVSRQIQQMVRFIRQEAEEKANEISVSAEEEFNIEKLQLVEAEKKKIRQDYEKKEKQADVRKKIDYSMQLNASRIKVLQAQDDIVNAMKDQAAKDLLNVSRDEYAYKQLLKDLIVQCLLRLKEPSVLLRCREEDLGLVEAVLDDAKEEYAGKAKVHAPEVAVDTKIFLPPPPKSNDPHGLHCSGGVVLASRDGKIVCENTLDARLDVAFRMKLPVIRKSLFGQVTA”: the “soluble on expression in E. coli” value is recorded as “soluble”.

Regarding “MNDKTTRGRASKVDLLPPNIKSTLTMMLRDKQYSQAEILEEINNIIADSGLDESMQLSKTGLNRFASKMERFGKKIREAREVAEVWTKQLVEAPQSDIGKLLMEAVKTMAFDLTLNADEAVANDPKFLNQLALIANRIEQAQSISEERERKVRKEVAQQAADTAEKVISQAGLSADTVAQIKQQILGIA”, the “soluble on expression in E. coli” value is “not soluble”.

Turning to “MNDLEKKFYELPELPYPYDALEPHISREQLTIHHQKHHQAYVDGANALLRKLDEARESDTDVDIKAALKELSFHVGGYVLHLFFWGNMGPADECGGEPSGKLAEYIEKDFGSFERFRKEFSQAAISAEGSGWAVLTYCQRTDRLFIMQVEKHNVNVIPHFRILLVLDVWEHAYYIDYRNVRPDYVEAFWNIVNWKEVEKRFEDIL”, the “soluble on expression in E. coli” value is reported as “soluble”.

Regarding “MNEDMEFFNRFSHMYLHGFKNLSDMFAEPATEHGITLDEFYILYDIAEAKGKIRLMDIAESHGVTRSAISRLIGRLLRKDYLYQEAEDHDRRNKVLKLTPEGARIEHEVFTELIQRNREWRQSFSLAKQYQTLNLVEEFMDKFVNEDASKQTKKATYADTDLKRAEA”, the “soluble on expression in E. coli” value is listed as “not soluble”.

“MNEEVRELERLVPAAATGDKTALQRIISIVYPQVLRYARTRLSGGRHPTPEDVAQEICLAVATSIAKFVDQGKPFMAFVYGIASNKVADAHRLYSRDLSNPTDEVPETEIDNDTPESFALLAAGSNRVQQLLDLLGDKPREILTLRVFVGLSAEETAEIVGSTPGAVRVAQHRALATLRKAIEQETGE”: the “soluble on expression in E. coli” value is given as “not soluble”.

In the case of “MNELLQDRVPPQNIEAEQAVLGSIFLDADVLIEAMEYVEPKDFYRRSHQLIFQTMMTLSDRNEAIDVVTIKDRLEQENLLEDVGGLSYLSDLALAVPTAANVIYYAKIVEQKSLLRNLIQTATEIVTKGFEQGEDVESILDDAERSILEVSEKRNRSGFLSISDVLNTTIANIDQLYQNDEEITGLPTGYQALDKMTAGLQAEELIILAARPAVGKTAFALNIAQNVGTKTDKAVAIFSLEMGAESLVNRMLCAEGSIEASHLRTGQLSEEEWQNLIIAMGSLSRANIYIDDTPGIKITEIRAKCRKLAQEKGNLGLILIDYLQLIEGTGKENRQQEVSDISRQLKKLAKELKVPVIALSQLSRGVEQRQDKRPVLSDIRESGSIEQDADIVAFLYRDDYYDRGEGEDGDHEPPEVDNVVEVIIEKNRSGARGTVELLFIKEYNKFSSLSPRTEF”, the “soluble on expression in E. coli” value is listed as “not soluble”.

Consider “MNEQIPHDKSLDNSLTLLKEGYLFIKNRTERYNSDLFQARLLGKNFICMTGAEAAKVFYDTDRFQRQNALPKRVQKSLFGVNAIQGMDGSAHIHRKMLFLSLMTPPHQKRLAELMTEEWKAAVTRWEKADEVVLFEEAKEILCRVACYWAGVPLKETEVKERADDFIDMVDAFGAVGPRHWKGRRARPRAEEWIEVMIEDARAGLLKTTSGTALHEMAFHTQEDGSQLDSRMAAIELINVLRPIVAISYFLVFSALALHEHPKYKEWLRSGNSREREMFVQEVRRYYPFGPFLGALVKKDFVWNNCEFKKGTSVLLDLYGTNHDPRLWDHPDEFRPERFAEREENLFDMIPQGGGHAEKGHRCPGEGITIEVMKASLDFLVHQIEYDVPEQSLHYSLARMPSLPESGFVMSGIRRKS”, for which the “soluble on expression in E. coli” value was “soluble”.

For the sequence “MNESIYTTPQSSKTPKSKSARYSSPYQVIDLNNESQEDLKTRLLEAENIIQDLRSERDALHESLVDKAGLNESVIIERSNKVSTQETRIYRRDVTLLEDDLKQKESQIRILQNRCLRLETEKQKMQDTISGYQEDLKENEIRIENLNSRLHKLEDELSAKTHEIFSIGEELKNKTMKLNEKNSQFQTKLAEISSENRNLERKVQKFREELIVKDQRSLEVHQDQENTQKVLKEVKQLSDRLDYLTPKRKDVSRIKERDDFLQFSAKIIEETMSELKLKNARLERELSEKEELVKVTKEELQELQKTVTQAMGDSEQATKYLHAENMKLTRQKADIRCDLLEARRNLKGFDEKREELEKQRDEALEDVRRITELKKNVEIELRSLKLLAEEREEQIDELKSRVAGYEVLRRDHEAVKNELAKAEEKLNKMGAHLVMADKQSSHFKTLKETAEGSRRRAIEQCNEMVARIRGLEASLENQRKVEQELEMVKAENVRQAKKIEFMKEEIQETHLDYREELSKLAKGGGSHEADSQRDSELRSAKKTIQEVKADNKKLQQILEEVRQNQSKVLEENVKLRKGMAEAIEKIEEFKRNWHSSREAGERLQLEAKENEEKVLKVEEELQEKRLEVLEKEELVNYLQSQINTKQTKQPKLSRRSTLMSTISEVDTSTYVREVEEVRALEEQREELQAYLAEKRKMADLQKSRSTANTTTLITSTTATEVSKSACELSYPPATMRHDIPHKWLEFRHYSVLSMKCSLCFVGITFFTKANKCSHCDVRVHASCAPRVNNTCGIPAQCATYYQDAQAVGGIGRMNGWLRVYRDDLPESTWTSLWAMMDSNHVKFYRDAGADNLENPYFTIDLNKEQWILRTGQEVAIPGDVMRNVLTIKLQTRSVHIVAPTPKSAERWAACLQNAQTRRMMKNSKPSSIAEYSCLLTLSLPNNLKIFKAHTIEDWILFATQTGLFFTSISQPRNPTRIAGPSSVTSLEVMSEINCVAMITNSNRQLALIPLDSLTLAMQSTHPSIRAEVLPEFGHVHTIRYHQQDGQRFLLVSDDTQLHIRKYNSTRDVFAHFAKLVVPEPVSFIESTPAGFIFASDTFYYVPLDHQSPSDVSARKLMPPRRSDYPVSAHAITANEILLAYQNHGIFVNLYGEQSRNQIIEWEKMPIEFAYTSPLLYIVHDDSIEIVQISKSSKETVLAEREVIACVNAHIVQSDGVLISVSSKDITEVHRFSATCRGTGTKRRGISPFNTLKRSKN”, the “soluble on expression in E. coli” value is “not soluble”.

Consider “MNFENDDIIHAPTTSSLILEERHDSELFRVYALILDGITDQVLLPGKKLTESELCRQMVCSRNTVRGALSLLAHDKIVDLQPNRGAFVHVPDLKEMQDVFNARIEMETMILNILADLPDLETRLKPLYAMIRREEEASGRGDRVGWNRLSNAFHVELARLVGNDVLFDIMNTLCARSSLIVAVAGVHREEKHAINTHTHSEHREILDLLLAGRRNRVVKILRRHLGNCMERLEKTLED”, for which the “soluble on expression in E. coli” value was “not soluble”.

As to “MNFENLLIELGTEELPPKALRKLAESFLANFTEELTKADLAFKSAVWYAAPRRLALNITELAIAQADKIVEKRGPAVSSAFDAGGKPTKAAEGWARGNGITVDQAERLVTDKGEWLVYNAKVEGVETKSLVAAMAQRALDKLPIPKPMRWGSSKTQFIRPVHTATMLLGSELIEGELLGIKSARNIRGHRFMGTGFELDHADNYLTLLKEKGKVIADYESRKALIKADAEKAAAKIGGTADIEDALLEEVTSLVEWPVVLTASFEEKFLSVPSEALVYTMKGDQKYFPVFDDAGKLLPNFIFVANIESKDPAQIISGNEKVVRPRLADAEFFFNTDKKHTLESRLPSLETVLFQQQLGTLKDKVTRISALAAFIAEQTGANAVDAARAGLLSKTDLMTNMVMEFTDTQGTMGMHYARLDGETEAVALAMEEQYKPKFSGDTVPTAAVSCAVALADKLDTLVGIFGIGQAPKGAADPFALRRAAIGVLRIIVENKLPLDLVTLIAKAQELHGANLSNANASEEVLEFLMARFRAWYQDKGINVDVILAVLARRPTR”, the “soluble on expression in E. coli” value is “not soluble”.

These data come from the DeepSol protein solubility set.
